target: MBP::FAX-1 (Caenorhabditis elegans) (UniProt G5EDJ0); test: EMSA; settings: EMSA: 1.5 ug MBP::FAX-1, 4 ng 32P ds oligo, BSA, 30 min pre-incubation + 30 min on ice, 8% native PAGE; binding buffer salt and pH not given
UniProt G5EDJ0, sequence (G5EDJ0 whole entry): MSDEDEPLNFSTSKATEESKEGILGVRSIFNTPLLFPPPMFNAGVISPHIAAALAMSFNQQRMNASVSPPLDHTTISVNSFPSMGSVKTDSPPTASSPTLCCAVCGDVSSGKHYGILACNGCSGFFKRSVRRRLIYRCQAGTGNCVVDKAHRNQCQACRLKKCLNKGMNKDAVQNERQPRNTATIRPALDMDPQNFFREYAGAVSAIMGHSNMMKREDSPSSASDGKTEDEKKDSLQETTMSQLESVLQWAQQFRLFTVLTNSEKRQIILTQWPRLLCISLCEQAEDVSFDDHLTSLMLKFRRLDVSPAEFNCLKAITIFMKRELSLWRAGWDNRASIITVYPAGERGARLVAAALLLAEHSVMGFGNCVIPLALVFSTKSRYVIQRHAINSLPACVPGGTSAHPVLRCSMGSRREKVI

Row | Sequence | binding signal (% probe bound)
1 | AATTACCCTTTTAAAAGTCAAAAGTCAACTTCCAA / TCGATTGGAAGTTGACTTTTGACTTTTAAAAGGGT [DR1A] | 53.3
2 | AATTACCCTTTTAAAAGTCAAAATTCAACTTCCAA / TCGATTGGAAGTTGAATTTTGACTTTTAAAAGGGT [HRSW] | 11.7
3 | AATTACCCTTTTAAAAGTCAAAATTTAACTTCCAA / TCGATTGGAAGTTAAATTTTGACTTTTAAAAGGGT [MON1] | 2.8
4 | AATTACCCTTTTAAAATTCAAAAGTCAACTTCCAA / TCGATTGGAAGTTGACTTTTGAATTTTAAAAGGGT [HRWS] | 10.5
5 | AATTACCCTTTTAAAATTCAAAATTCAACTTCCAA / TCGATTGGAAGTTGAATTTTGAATTTTAAAAGGGT [DRNC] | 0.4
6 | AATTACCCTTTTAAAATTTAAAAGTCAACTTCCAA / TCGATTGGAAGTTGACTTTTAAATTTTAAAAGGGT [MON2] | 4.5
7 | AATTACCCTTTTAAACGTCAAACGTCAACTTCCAA / TCGATTGGAAGTTGACGTTTGACGTTTAAAAGGGT [DR1C] | 26.1
8 | AATTACCCTTTTAAATGTCAAATGTCAACTTCCAA / TCGATTGGAAGTTGACATTTGACATTTAAAAGGGT [DR1T] | 29.8

same assay, conditions: supershift with anti-FAX-1 shown; EMSA: 1.5 ug MBP::FAX-1, 4 ng 32P ds oligo, BSA, 30 min pre-incubation + 30 min on ice, 8% native PAGE; binding buffer salt and pH not given

Row | Sequence | binding signal (% probe bound)
9 | AATTACCCTTTTAAAGGTCAAAGGTCAACTTCCAA / TCGATTGGAAGTTGACCTTTGACCTTTAAAAGGGT [DR1G] | 42.1

Reference: PMC2225407
